The target in assay [1] is Rck, outer membrane protein of Salmonella enterica serovar Typhimurium, expressed on E. coli BL21(DE3) from plasmid pRck (Salmonella enterica serovar Typhimurium strain SL1344) (UniProt Q04817). Nature of the assay: flow cytometry on cells; E. coli BL21(DE3) pRck in DPBS with purified C4BP (increasing amounts) or with wt C4BP or recombinant CCP deletion mutants at 10 µg/ml, 37°C; detected with sheep polyclonal anti-human C4BP; MFI of wt C4BP set to 100%.

Assay [2] shares this target. The assay is described as follows: flow cytometry on cells; E. coli BL21(DE3) pRck with wt C4BP or the CCP7 or CCP8 deletion mutant (10 µg/ml); detected with monoclonal anti-C4BP MK104, specific for CCP1 of the α-chain; MFI of wt C4BP set to 100%.
Assay [3] has as its target Rck G118D mutant (Salmonella enterica serovar Typhimurium) (UniProt Q04817). Nature of the assay: flow cytometry on cells; data not shown: FACS analysis with purified C4BP on the Rck G118D mutant against wt Rck. On the technique in general: A flow cytometer gives signals particle by particle.

On to “Recombinant human C4BP mutant with CCP7 of the α-chain deleted (from UniProt P04003 49-597) (complex)”, for which the percent reduction in binding against wt C4BP amounted to 70% in assay [1] and 84% in assay [2].

The substance “Human C4b-binding protein (C4BP) (from UniProt P04003 49-597; P20851 18-252) (complex)” showed a fold less C4BP bound than by wt Rck in assay [3] of 24 fold.

Regarding “Recombinant human C4BP mutant with CCP8 of the α-chain deleted (from UniProt P04003 49-597) (complex)”, the percent reduction in binding against wt C4BP in assay [1] turned out to be 60%; in assay [2], 78%.

The values are drawn from PMC3213152.
